The target of one series is His187 (UniProt position 187, ITIKQHTVTTT). Put plainly: NMR. Particulars: 20 °C, not stated (36 mM sodium phosphate + 36 mM sodium citrate, no added salt stated), folded GHaPrP90-231, 1 mM.
In a further series the target is His186 (UniProt position 186, ITVKQHTVTTT). Put plainly: NMR. The following applies: 20 °C, not stated (36 mM sodium phosphate + 36 mM sodium citrate, no added salt stated), folded RaPrP90-231, 1 mM.

Among the data in article PMC5429843 are pKa values, retold here.

What is called pKa is the pH at which an ionisable group is half protonated. With “Major prion protein, C-terminal domain (GHaPrP90-231) (Mesocricetus auratus (golden/Syrian hamster))”, the pKa is 4.9 ± 0.2 with His187; 4.9 ± 0.1 with His187 (oxidised disulfide. Progressive loss of amide dispersion and peak inhomogeneity near pH 5.).

Take “Major prion protein, C-terminal domain (RaPrP90-231) (Oryctolagus cuniculus (rabbit))”: the values for the pKa with His186 and in the series with His186 (oxidised disulfide) were 5.1 and 5.1 ± 0.1, respectively.
